Experimental data: ChEMBL document CHEMBL3352420, “Discovery of 2-pyridylureas as glucokinase activators” (J Med Chem, 2014); call rule not given here

Assays:
[1] = compound: CNC(=O)Nc1ncc(SC2CCOCC2)cc1Oc1cccnc1C; experiment: (§1) Activation of purified human glucokinase isoform 3 (13 to 466 aa) assessed as Vmax by spectrophotometry in presence of varying concentration of glucose relative to control
[2] = compound: CCn1nccc1Oc1cc(Sc2ccccn2)cnc1NC(=O)NC; experiment: as §1
[3] = compound: CNC(=O)Nc1ncc(SCC2CCOCC2)cc1Oc1cccnc1C; experiment: as §1
[4] = compound: CCc1ncccc1Oc1cc(Sc2ccccn2)cnc1NC(=O)NC(C)C; experiment: as §1
[5] = compound: CNC(=O)Nc1ncc(SC2CCN(C(=O)OC(C)(C)C)CC2)cc1Oc1cccnc1C; experiment: as §1
[6] = compound: CCc1ncccc1Oc1cc(Sc2ccccn2)cnc1NC(=O)NCc1ccc(O)cc1; experiment: as §1
[7] = compound: CCc1ncccc1Oc1cc(Sc2ccccn2)cnc1NC(=O)NCc1cccc(O)c1; experiment: as §1
[8] = compound: CCc1ncccc1Oc1cc(Sc2ccccn2)cnc1NC(=O)NCc1ccccc1O; experiment: as §1
[9] = compound: CNC(=O)Nc1ncc(SC2CCN(C(C)=O)CC2)cc1Oc1cccnc1C; experiment: as §1
[10] = compound: CNC(=O)Nc1ncc(SC2CCN(S(C)(=O)=O)CC2)cc1Oc1cccnc1C; experiment: as §1
[11] = compound: CNC(=O)Nc1ncc(SCc2ccccc2)cc1Oc1cccnc1C; experiment: as §1
[12] = compound: CCc1ncccc1Oc1cc(Sc2ccccn2)cnc1NC(=O)NCCO; experiment: as §1
[13] = compound: CCc1ncccc1Oc1cc(Sc2ccccn2)cnc1NC=O; experiment: as §1
[14] = compound: CCNC(=O)Nc1ncc(Sc2ccccn2)cc1Oc1cccnc1CC; experiment: as §1
[15] = compound: CCOC(=O)Nc1ncc(Sc2ccccn2)cc1Oc1cccnc1CC; experiment: as §1
[16] = compound: CCc1ncccc1Oc1cc(Sc2ccccn2)cnc1NC(=O)NC; experiment: as §1
[17] = compound: CCc1ncccc1Oc1cc(Sc2ccccn2)cnc1NC(N)=O; experiment: as §1
[18] = compound: CCc1ncccc1Oc1cc(Sc2ccccn2)cnc1NC(=O)NCc1ccncc1; experiment: as §1
[19] = compound: CNC(=O)Nc1ncc(SCCCOC)cc1Oc1cccnc1C; experiment: as §1
[20] = compound: CCc1ncccc1Oc1cc(Sc2ccccn2)cnc1NC(=O)NCc1cccnc1; experiment: as §1
[21] = compound: CNC(=O)Nc1ncc(Sc2ccccn2)cc1Oc1cccnc1C; experiment: as §1
[22] = compound: CNC(=O)Nc1ncc(Sc2ccccn2)cc1Oc1c(C)n[nH]c1C; experiment: as §1
[23] = compound: CNC(=O)Nc1ncc(SCc2ccccn2)cc1Oc1cccnc1C; experiment: as §1
[24] = compound: CCc1ncccc1Oc1cc(Sc2ccccn2)cnc1NC(=O)NCc1ccccn1; experiment: as §1
[25] = compound: CCc1ncccc1Oc1cc(Sc2ccccn2)cnc1NC(C)=O; experiment: as §1
[26] = compound: CNC(=O)Nc1ncc(SCCCO)cc1Oc1cccnc1C; experiment: as §1

B1: Hexokinase-4 (Homo sapiens), P35557 (protein)
chain: MLDDRARMEAAKKEKVEQILAEFQLQEEDLKKVMRRMQKEMDRGLRLETHEEASVKMLPTYVRSTPEGSEVGDFLSLDLGGTNFRVMLVKVGEGEEGQWSVKTKHQMYSIPEDAMTGTAEMLFDYISECISDFLDKHQMKHKKLPLGFTFSFPVRHEDIDKGILLNWTKGFKASGAEGNNVVGLLRDAIKRRGDFEMDVVAMVNDTVATMISCYYEDHQCEVGMIVGTGCNACYMEEMQNVELVEGDEGRMCVNTEWGAFGDSGELDEFLLEYDRLVDESSANPGQQLYEKLIGGKYMGELVRLVLLRLVDENLLFHGEASEQLRTRGAFETRFVSQVESDTGDRKQIYNILSTLGLRPSTTDCDIVRRACESVSTRAAHMCSAGLAGVINRMRESRSEDVMRITVGVDGSVYKLHPSFKERFHASVRRLTPSCEITFIESEEGSGRGAALVSAVACKKACMLGQ
[1]
  Vmax: 73%
[2]
  Vmax: 90%
[3]
  Vmax: 88%
[4]
  Vmax: Not active
[5]
  Vmax: 75%
[6]
  Vmax: 66%
[7]
  Vmax: 68%
[8]
  Vmax: 84%
[9]
  Vmax: 59%
[10]
  Vmax: 54%
[11]
  Vmax: 76%
[12]
  Vmax: 66%
[13]
  Vmax: 104%
[14]
  Vmax: 64%
[15]
  Vmax: Not active
[16]
  Vmax: 77%
[17]
  Vmax: 77%
[18]
  Vmax: 73%
[19]
  Vmax: 87%
[20]
  Vmax: 75%
[21]
  Vmax: 74%
[22]
  Vmax: 53%
[23]
  Vmax: 146%
[24]
  Vmax: 72%
[25]
  Vmax: Not active
[26]
  Vmax: 80%
